Data from patent publication US20240076389A1 (NATIONAL RESEARCH COUNCIL OF CANADA, published 2024).

How the values were obtained:
[1] = target: T1, huMER-ECD displayed on yeast (human, UniProt Q12866 21-505); assay: yeast surface display ELISA, non-denatured yeast, goat anti-human F(ab')2-HRP
T1 construct: extracellular domain
T1 sequence (looked up): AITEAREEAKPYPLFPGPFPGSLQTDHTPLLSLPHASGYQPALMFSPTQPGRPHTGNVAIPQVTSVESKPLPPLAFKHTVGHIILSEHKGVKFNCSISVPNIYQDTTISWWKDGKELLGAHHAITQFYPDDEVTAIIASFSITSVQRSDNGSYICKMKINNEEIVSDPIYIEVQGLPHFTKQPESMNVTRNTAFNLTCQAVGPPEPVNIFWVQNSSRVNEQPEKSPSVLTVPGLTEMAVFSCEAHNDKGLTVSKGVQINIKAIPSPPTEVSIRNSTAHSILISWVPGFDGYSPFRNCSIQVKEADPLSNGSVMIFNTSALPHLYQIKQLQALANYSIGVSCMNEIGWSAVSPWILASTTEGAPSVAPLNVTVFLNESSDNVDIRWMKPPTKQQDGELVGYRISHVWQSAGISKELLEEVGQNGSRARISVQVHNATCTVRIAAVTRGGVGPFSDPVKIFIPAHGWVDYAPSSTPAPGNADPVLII

[2] = target: T2, cyAXL-ECD displayed on yeast; assay: as above
T2 construct: extracellular domain; 'cy' read as cynomolgus

[3] = target: T3, human AXL expressed on the cell surface of tumor cell lines (human, UniProt P30530 26-894); assay: FACS on SKOV3 cells, apparent Kd, human Fc format
T3 construct: whole, on cells; also called cell surface-expressed AXL; cell-based AXL
T3 sequence (looked up): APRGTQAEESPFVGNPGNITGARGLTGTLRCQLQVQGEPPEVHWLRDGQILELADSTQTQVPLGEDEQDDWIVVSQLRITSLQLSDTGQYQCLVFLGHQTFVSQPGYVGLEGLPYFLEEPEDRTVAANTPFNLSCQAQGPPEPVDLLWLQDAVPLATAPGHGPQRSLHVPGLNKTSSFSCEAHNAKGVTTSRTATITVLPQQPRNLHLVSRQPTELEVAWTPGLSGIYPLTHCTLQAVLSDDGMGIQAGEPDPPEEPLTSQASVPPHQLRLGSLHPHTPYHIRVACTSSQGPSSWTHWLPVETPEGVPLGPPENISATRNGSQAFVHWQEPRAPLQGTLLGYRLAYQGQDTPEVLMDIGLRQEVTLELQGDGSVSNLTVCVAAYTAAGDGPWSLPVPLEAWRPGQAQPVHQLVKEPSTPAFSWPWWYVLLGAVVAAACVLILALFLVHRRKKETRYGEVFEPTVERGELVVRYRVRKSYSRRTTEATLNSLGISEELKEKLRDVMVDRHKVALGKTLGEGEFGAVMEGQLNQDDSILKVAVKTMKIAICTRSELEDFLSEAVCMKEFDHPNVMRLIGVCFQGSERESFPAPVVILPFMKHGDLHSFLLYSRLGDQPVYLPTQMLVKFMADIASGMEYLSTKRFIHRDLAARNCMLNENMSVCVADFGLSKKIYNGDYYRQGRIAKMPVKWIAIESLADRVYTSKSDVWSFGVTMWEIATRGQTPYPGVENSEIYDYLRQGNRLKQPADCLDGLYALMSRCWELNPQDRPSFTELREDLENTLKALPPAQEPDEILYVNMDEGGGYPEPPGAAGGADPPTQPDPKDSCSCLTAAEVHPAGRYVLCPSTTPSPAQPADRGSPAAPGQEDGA
Method: (§1) FACS binding assay. Adherent cells were dissociated with non-enzymatic Sigma Cell Dissociation Solution (Cat. No. C5789). Cells suspensions were added to polypropylene, V-bottom 96-well plates and incubated for 2 hours on ice with primary antibodies at concentrations ranging from 100 nM to 0.001 nM or at a single dose of 100 nM (for the non-specific control). After incubation and washes, cells were incubated with fluorescently labeled secondary antibody (Alexa Fluor® 488 anti-human IgG from Jackson Cat. No 709-546-098) for 1 hour on ice, then washed. Cell viability was determined using Fixable viability dye 450 (20 min on ice). Stained cells were fixed in 1% formaldehyde at 4° C. and stored at 4° C. until acquisition which was performed the next day.
(§2) Binding of recombinant chimeric Abs to three cell lines was assessed by FACS as described above. The apparent Bmax and Kd determination is shown below in Table 14.

[4] = target: T4, recombinant human AXL extracellular domain, C-terminally His8-tagged (rhAXL-ECD) (human, UniProt P30530 26-451); assay: ELISA on coated AXL ECD (100 ng/well), VHH-Fc, HRP-protein A
T4 construct: Made in CHO cells; also called (rh)AXL-ECD His8; human AXL ECD
T4 sequence: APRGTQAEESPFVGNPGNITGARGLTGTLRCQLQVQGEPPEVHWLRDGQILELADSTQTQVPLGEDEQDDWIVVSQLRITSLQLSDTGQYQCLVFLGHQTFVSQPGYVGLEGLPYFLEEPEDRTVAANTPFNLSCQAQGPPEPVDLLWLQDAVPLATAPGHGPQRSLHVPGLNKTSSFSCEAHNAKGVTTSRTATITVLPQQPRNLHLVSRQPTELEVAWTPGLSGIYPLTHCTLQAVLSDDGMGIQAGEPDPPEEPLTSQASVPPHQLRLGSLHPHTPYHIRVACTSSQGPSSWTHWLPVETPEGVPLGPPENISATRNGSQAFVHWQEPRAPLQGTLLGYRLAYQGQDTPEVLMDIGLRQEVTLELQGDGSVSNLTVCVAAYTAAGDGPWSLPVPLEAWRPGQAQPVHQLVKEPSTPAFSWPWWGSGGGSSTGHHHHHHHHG
Method: (§3) ELISA. ELISAs against human, cyno and mouse AXL ECDs were conducted by immobilizing 100 ng of each protein in wells of Nunc MaxiSorp microplates overnight. Human AXL (aa 1-451) and cyno AXL (aa 1-449) were produced recombinantly as described in Example 10. Mouse AXL was purchased from Sino (cat. 51026-M08H). The next day, plates were blocked with 5% (w/v) dried milk in PBS. Murine mAbs (either hybridoma- or recombinantly-produced) or VHH-Fcs were diluted in PBS containing 1% BSA and 0.1% Tween-20 and added to wells for 2 hours at room temperature. Wells were washed 5× with PBS containing 0.1% Tween-20, then HRP-labeled protein A (diluted 1:1000 in PBS containing 1% BSA and 0.1% Tween™-20) was added to wells for 1 hour at room temperature. Wells were washed again 5× with PBS/0.1% Tween-20 and developed using TMB substrate. Absorbance was measured at 450 nm. As a positive control for mouse AXL binding, a commercial anti-mouse AXL mAb (clone 175128, R&D Systems MAB8541, rat IgG2A) was used and detected with donkey […] secondary antibody.

[5] = target: T5, mouse AXL extracellular domain (Sino cat. 51026-M08H) (mouse, UniProt Q00993 19-445); assay: ELISA on coated mouse AXL ECD (100 ng/well), VHH-Fc
T5 construct: extracellular domain; Bought protein; also called mouse AXL ECD
T5 sequence (looked up): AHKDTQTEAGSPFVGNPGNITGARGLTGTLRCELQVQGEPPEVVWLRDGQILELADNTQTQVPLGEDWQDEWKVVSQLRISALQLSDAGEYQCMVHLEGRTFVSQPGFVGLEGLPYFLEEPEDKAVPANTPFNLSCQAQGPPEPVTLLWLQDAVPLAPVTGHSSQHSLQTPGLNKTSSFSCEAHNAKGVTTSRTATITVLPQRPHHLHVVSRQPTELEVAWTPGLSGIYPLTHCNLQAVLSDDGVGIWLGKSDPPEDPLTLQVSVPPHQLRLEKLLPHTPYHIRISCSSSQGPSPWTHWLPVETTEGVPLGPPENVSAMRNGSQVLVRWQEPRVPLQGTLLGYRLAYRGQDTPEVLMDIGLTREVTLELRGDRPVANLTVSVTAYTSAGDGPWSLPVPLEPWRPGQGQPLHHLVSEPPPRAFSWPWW
Method: as §3

[6] = target: T4, recombinant human AXL extracellular …; assay: SPR, VHH-Fc captured, AXL ECD flowed, single-concentration kinetics (estimate)
Method: (§4) For VH Hs and VHH-Fcs, binding to human and cynomolgus AXL ECD was assessed using either a Biacore T200 instrument or a Biacore 3000 instrument. Either human AXL ECD or anti-human Fc antibody was immobilized on a research-grade CM5 series S sensor chip (T200, rhAXL ECD) or a C1 sensor chip (3000, anti-human Fc) using amine coupling in acetate buffer. VHH-Fcs were captured on anti-human Fc surfaces. Either monomeric VHHs (for rhAXL ECD surfaces) or human and cyno AXL ECD (for VHH-Fc surfaces) were flowed over the surfaces at different concentration ranges. Running buffers were HBS-EP (3000) and HBS-EP+(T200). Flow rates were 10-40 ul/min. All binding studies were performed at 25° C. Surfaces were regenerated using 10 mM glycine, pH 1.5.

[7] = target: T3, human AXL expressed on the cell surface …; assay: FACS on NCI-H292 cells, apparent Kd, human Fc format
Method: as §1, §2

[8] = target: T4, recombinant human AXL extracellular …; assay: SPR, VHH-Fc captured, AXL ECD flowed, single-cycle kinetics
Method: as §4

[9] = target: T3, human AXL expressed on the cell surface …; assay: FACS on MDA-MB-231 luciferase cells, apparent Kd, human Fc format
Method: as §1, §2

[10] = target: T6, huTyro3-ECD displayed on yeast (human, UniProt Q06418 41-429); assay: yeast surface display ELISA, non-denatured yeast, goat anti-human F(ab')2-HRP
T6 construct: extracellular domain
T6 sequence (looked up): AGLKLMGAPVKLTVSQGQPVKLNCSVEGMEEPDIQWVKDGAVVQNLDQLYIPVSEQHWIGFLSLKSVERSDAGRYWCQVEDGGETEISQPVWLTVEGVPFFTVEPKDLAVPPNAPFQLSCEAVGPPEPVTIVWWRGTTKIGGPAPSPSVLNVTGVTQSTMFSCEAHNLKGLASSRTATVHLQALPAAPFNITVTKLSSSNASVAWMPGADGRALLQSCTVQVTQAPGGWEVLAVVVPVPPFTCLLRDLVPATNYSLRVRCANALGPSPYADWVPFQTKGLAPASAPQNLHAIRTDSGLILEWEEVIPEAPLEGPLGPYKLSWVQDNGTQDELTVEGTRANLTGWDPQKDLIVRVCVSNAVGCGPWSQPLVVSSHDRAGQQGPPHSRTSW

[11] = target: T3, human AXL expressed on the cell surface …; assay: cell-based or functional assay
[12] = target: T3, human AXL expressed on the cell surface …; assay: cell-based or functional assay; remark: listed apart in the source

B1: NRC-sdAb002-Fc (VHH-human IgG1 Fc fusion) (Fc fusion)
chain: QVQLVDSGGGLVQAGGSLRLSCATSTRTVSSAVMAWFRQAPEKVRDFVGFITNSGNILYDDSVKGRFTISRDNAQNTVYLQMNSLKPEDTAVYYCAAKWSFSSGYGDLRRAAMYDYWGQGTQVTVSS
notes: VHH fused N-terminally to human IgG1 Fc; also called NRC-sdAb0002-Fc; NRC-sdAb002-hIgG1; not shown: human IgG1 Fc
Question: How did the “yeast ELISA signal normalized to myc expression level” value (shortened to “yeast ELISA signal normalized”) [1] turn out when B1 was run?
Answer: Its value is 0.01.

Question: What about the “yeast ELISA signal normalized” value [2] of the same binder?
Answer: Its value is 0.76.

B2: NRC-sdAb008-Fc (VHH-human IgG1 Fc fusion) (Fc fusion)
chain: QVKLEESGGGLVQAGGSLRLSCAASGSSGMINTMGWYRQAPGKQRELVARRSTGGTTNYADSVKGRFTISRDDANNTVYLQMNSLKPEDTAVYYCAIIWRTSDLTGRFNTWGQGTQVTVSS
notes: VHH fused N-terminally to human IgG1 Fc; also called NRC-sdAb008-hIgG1; not shown: human IgG1 Fc
Question: B2 was tested. Which Kd [3] did it give?
Answer: The Kd was 0.0549 nM.

Question: What about the EC50 [4] of the same binder?
Answer: Its EC50 is 1 nM.

Question: Does B2 bind [5]?
Answer: Result: no binding

Question: And the Kd [6]?
Answer: The Kd was 2 nM.

Question: And the koff [6]?
Answer: The koff was 0.0082 s⁻¹.

Question: What about the kon [6] of the same binder?
Answer: The kon was 5.3e+06 M⁻¹ s⁻¹.

Question: What about the Kd [7] of the same binder?
Answer: Its Kd is 0.0414 nM.

Question: And the Kd [8]?
Answer: The Kd was 1 nM.

Question: And the koff [8]?
Answer: Its koff is 0.0033 s⁻¹.

Question: What about the kon [8] of the same binder?
Answer: The kon was 3.3e+06 M⁻¹ s⁻¹.

Question: What about the Kd [9] of the same binder?
Answer: The Kd was 0.122 nM.

B3: NRC-sdAb003-Fc (VHH-human IgG1 Fc fusion) (Fc fusion)
chain: QVQLVESGGGLVQAGGSLRLSCAASGVTLDYTAIGWFRQAPGKERELVAAITSGGNTDYAESAKGRFRISRDNSKNTIYLQMNSLKPEDTGVYYCAARRGGARGEYDYWDQGTQVTVSS
notes: VHH fused N-terminally to human IgG1 Fc; also called NRC-sdAb0003-Fc; NRC-sdAb003-hIgG1; not shown: human IgG1 Fc
Question: B3 was tested. Which “yeast ELISA signal normalized” value [1] did it give?
Answer: Its value is -0.009.

Question: What about the “yeast ELISA signal normalized” value [10] of the same binder?
Answer: Its value is -0.005.

Question: What about the “yeast ELISA signal normalized” value [2] of the same binder?
Answer: The value was 0.668.

B4: hFc-F107-10G1-DM1 (antibody, human IgG1, kappa, V domains shown)
VH: EVNLVESGGGVVKPGASLKLSCEASGFTFSNYGMSWVRQTSDKRLEWVASISGGGGRTYYLDNVKGRFIISRENAKNTLYLQMSSLKSEDTALFYCARGARASYFAMDYWGQGSSVTVSS
VL: VIVMTQSHKFMSTSVGDRVSITCKASQDVTTAVAWYQQKPGQSPKLLIYWASTRHTGVPDRFTGSGSGTDYSLTISNVQTEDLAFYYCQQHFTTPLTFGAGTKLELKR
modifications: DM1 through SMCC linker on lysine residues; sites not given
Question: Which “IC50 of growth inhibition (CellTiterGlo, 5 days) of NCI-H292 cells, -Gas6” value [11] does the source give for B4 here?
Answer: Its value is 0.013 nM.

Question: And the “IC50 of growth inhibition of NCI-H292 cells, +Gas6 (2 µg/mL)” value [11]?
Answer: The value was 0.46 nM.

Question: And the “IC50 (read off the curve), growth inhibition of H292 cells, without added Gas6 (circles)” value [12]?
Answer: Its value is about 0.004 nM.
